Source: patent US20210069342A1 (LEGOCHEM BIOSCIENCES, published 2021)

T1: BCMA-Fc, a recombinant protein where the extracellular domain of human BCMA protein is linked to human Fc (human, UniProt Q02223 1-54)
T1 construct: extracellular domain; Negative control in panning and ELISA; also called negative control-Fc
T1 sequence (looked up): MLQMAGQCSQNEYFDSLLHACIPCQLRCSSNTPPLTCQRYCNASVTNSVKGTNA


These binders were tested against T1, BCMA-Fc, a recombinant protein where … (assay: ELISA, wells coated with BCMA-Fc (negative control), monoclonal scFv supernatant, anti-HA HRP detection, OD (450-650nm)).
Procedure: Specifically, 100 ng per well of recombinant human ROR1-Fc prepared in Embodiment 1-1 or FBMA-Fc was placed in a 96-well microtiter plate (Nunc-Immuno Plate, NUNC, USA), which was coated overnight at 4° C. BCMA-Fc is the protein used as a negative control, a recombinant protein where the extracellular domain of human BCMA protein is linked to human Fc. 200 μL each of 3% BSA was placed in each well, and blocked for 2 hours at 37° C.
The monoclonal phage supernatant was prepared by mixing 1:1 with 3% BSA, and 100 μL each of this mixture was loaded into the wells and reacted for 2 hours at 37° C. After washing 5 times with 300 μL PBST, anti-HA HRP binding antibody was added, reacted for 1 hour at 37° C., then washed 5 times with PBST. 100 μL TMB (Tetramethylbenzidine, Sigma, T0440) was added for color development, and then 50 μL 1N H2SO₄ was added to stop the reaction. Absorbance was measured at 450 nm and 650 nm, and clones where the absorbance at 450 nm and 650 nm was […] when coated with 1 /mL ROR1 were screened (FIG. 1)

Binder	binding result
anti-ROR1 monoclonal phage antibody AB4 (soluble scFv) (scFv, V domains shown, Tested as soluble scFv in culture supernatant, detected through an HA tag) VH: EVQLLESGGGLVQPGGSLRLSCAASGFTFSSYDMSWVRQAPGKGLEWVSWISPDSGSIYYADSVKGRFTISRDNSKNTLYLQMNSLRAEDTAVYYCARPTGRFDYWGQGTLVTVSS VL: QSVLTQPPSASGTPGQRVTISCSGSSSNIGNNNVNWYQQLPGTAPKLLIYYDNKRPSGVPDRFSGSKSGTSASLAISGLRSEDEADYYCGTWDASLSGYVFGGGTKLTVLG	no binding
anti-ROR1 monoclonal phage antibody BA6 (soluble scFv) (scFv, V domains shown, Tested as soluble scFv in culture supernatant, detected through an HA tag) VH: EVQLLESGGGLVQPGGSLRLSCAASGFTFSNYDMSWVRQAPGKGLEWVSAIYHSGSSKYYADSVKGRFTISRDNSKNTLYLQMNSLRAEDTAVYYCARGGNGAWDTGFDYWGQGTLVTVSS VL: QSVLTQPPSASGTPGQRVTISCSGSSSNIGSNDVSWYQQLPGTAPKLLIYYDNNRPSGVPDRFSGSKSGTSASLAISGLRSEDEADYYCGAWDDSLSGYVFGGGTKLTVLG	no binding
anti-ROR1 monoclonal phage antibody DG6 (soluble scFv) (scFv, V domains shown, Tested as soluble scFv in culture supernatant, detected through an HA tag) VH: EVQLLESGGGLVQPGGSLRLSCAASGFTFSDYDMSWVRQAPGKGLEWVSVISPDGGSIYYADSVKGRFTISRDNSKNTLYLQMNSLRAEDTAVYYCARDVVECNMNPCSYDNAMDVWGQGTLVTVSS VL: QSVLTQPPSASGTPGQRVTISCSGSSSNIGSNYVSWYQQLPGTAPKLLIYDDSHRPSGVPDRFSGSKSGTSASLAISGLRSEDEADYYCGAWDDSLSGYVFGGGTKLTVLG	no binding
anti-ROR1 monoclonal phage antibody D2B12 (soluble scFv) (scFv, V domains shown, Tested as soluble scFv in culture supernatant, detected through an HA tag) VH: EVQLLESGGGLVQPGGSLRLSCAASGFTFSNYDMSWVRQAPGKGLEWVSSISPSSGSSIYYADSVKGRFTISRDNSKNTLYLQMNSLRAEDTAVYYCAKAPGWCQAPSCYYDNAMDVWGQGTLVTVSS VL: QSVLTQPPSASGTPGQRVTISCSGSSSNIGNNDVSWYQQLPGTAPKLLIYDDSQRPSGVPDRFSGSKSGTSASLAISGLRSEDEADYYCGAWDDSLSGYVFGGGTKLTVLG	no binding
anti-ROR1 monoclonal phage antibody CC9 (soluble scFv) (scFv, V domains shown, Tested as soluble scFv in culture supernatant, detected through an HA tag) VH: EVQLLESGGGLVQPGGSLRLSCAASGFTFSSYDMSWVRQAPGKGLEWVSGISHGSGNKYYADSVKGRFTISRDNSKNTLYLQMNSLRAEDTAVYYCAKRLSLRRRPSYYSDNAMDVWGQGTLVTVSS VL: QSVLTQPPSASGTPGQRVTISCTGSSSNIGNNAVNWYQQLPGTAPKLLIYYDSNRPSGVPDRFSGSKSGTSASLAISGLRSEDEADYYCGAWDDSLSGYVFGGGTKLTVLG	no binding
anti-ROR1 monoclonal phage antibody A2F2 (soluble scFv) (scFv, V domains shown, Tested as soluble scFv in culture supernatant, detected through an HA tag) VH: EVQLLESGGGLVQPGGSLRLSCAASGFTFSDYYMSWVRQAPGKGLEWVSSISPDGSNTYYADSVKGRFTISRDNSKNTLYLQMNSLRAEDTAVYYCAKNLRAFDYWGQGTLVTVSS VL: QSVLTQPPPASGTPGQRVTISCSGSSSNIGSNTVYWYQQLPGTAPKLLIYANSQRPSGVPDRFSGSKSGTSASLAISGLRSEDEADYYCGSWDYSLSGYVFGGGTKLTVLG	no binding
anti-ROR1 monoclonal phage antibody C2E3 (soluble scFv) (scFv, V domains shown, Tested as soluble scFv in culture supernatant, detected through an HA tag) VH: EVQLLESGGGLVQPGGSLRLSCAASGFTFSNYAMSWVRQAPGKGLEWVSSISHNSGSTYYADSVKGRFTISRDNSKNTLYLQMNSLRAEDTAVYYCAKFISARKSLGRSYSNGMDVWGQGTLVTVSS VL: QSVLTQPPSASGTPGQRVTISCTGSSSNIGSNDVTWYQQLPGTAPKLLIYADSKRPSGVPDRFSGSKSGTSASLAISGLRSEDEADYYCGTWDYSLSGYVFGGGTKLTVLG	no binding
anti-ROR1 monoclonal phage antibody A2F3 (soluble scFv) (scFv, V domains shown, Tested as soluble scFv in culture supernatant, detected through an HA tag) VH: EVQLLESGGGLVQPGGSLRLSCAASGFTFSSYDMSWVRQAPGKGLEWVSWISPGGGSKYYADSVKGRFTISRDNSKNTLYLQMNSLRAEDTAVYYCARVNGRFDYWGQGTLVTVSS VL: QSVLTQPPSASGTPGQRVTISCSGSSSNIGNNNVSWYQQLPGTAPKLLIYADSHRPSGVPDRFSGSKSGTSASLAISGLRSEDEADYYCATWDYSLSGYVFGGGTKLTVLG	no binding
